Assay [1] concerns the target T1, Activin A (human, UniProt P08476 311-426).
T1 construct: Homodimer of two βA subunits; bought from R&D Systems (#338-AC); also called inhibin-βA dimer; human Activin A
T1 sequence: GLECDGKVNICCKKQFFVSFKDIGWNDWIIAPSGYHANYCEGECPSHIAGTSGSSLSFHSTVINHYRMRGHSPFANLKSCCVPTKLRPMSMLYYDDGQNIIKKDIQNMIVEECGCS
As to the kind of experiment: SPR, captured mAb, 37C. The method, then: (§1) Antibody-antigen association was monitored for 240 seconds while dissociation in buffer was monitored for 600 seconds. Kinetic association and dissociation rate constants were determined by processing and fitting the data using Scrubber software version 2.0c. Binding equilibrium dissociation constants (KD) and dissociative half-lives (t_{1/2}) were then calculated from the kinetic rate constants as: KD (M)=kd/kₐ and t_{1/2} (min)=[ln 2/(60*kd)]. (NB=no binding observed under the conditions used; NT=not tested).

Assay [2] addresses T1, Activin A. As to the kind of experiment: SPR, captured mAb, 25C. Here is the method: as §1

B1: H4H10437P2 (antibody, human IgG4, V domains shown)
VH: EVQLVESGGGLVQPGRSLRLSCAASGFTFDDYAMHWVRQAPGKGLEWVSGISWNSGSIGYADSVKGRFTISRDNAKNSLYLQMNSLRAEDTALYYCAKDIMGNWDYFYGMDVWGQGTTVTVSS
VL: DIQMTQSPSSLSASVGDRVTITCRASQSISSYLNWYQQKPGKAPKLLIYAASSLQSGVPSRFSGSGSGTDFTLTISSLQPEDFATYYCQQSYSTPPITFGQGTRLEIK
For B1, in the assay with Activin A [1], the “Activin A-20 nM (RU)” value was 20 RU, binding was characterised by a dissociation constant (Kd) of 229 pM, the koff came out at 0.00468 s⁻¹ and the kon is 2.04e+07 M⁻¹ s⁻¹. In the assay with Activin A [1], the t1/2 came out at 2 min. Also, in the assay with Activin A [2], the “Activin A-20 nM (RU)” value turned out to be 30 RU; the affinity, expressed as Kd, was 134 pM; the dissociation rate constant (koff) was 0.00213 s⁻¹; the kon was determined as 1.58e+07 M⁻¹ s⁻¹. In the assay with Activin A [2], this molecule came in with a t1/2 of 5 min.

B2: H4H10438P2 (antibody, human IgG4, V domains shown)
VH: EVQLVESGGGLVQPGRSLRLSCAASGFTFDDNAMHWVRQPPGKGLEWVSGISWNSGSIGYADSVKGRFTISRDNAKNSLYLQMNSLRAEDTALYYCAKDINDILTGYPLFDYWGQGTLVTVSS
VL: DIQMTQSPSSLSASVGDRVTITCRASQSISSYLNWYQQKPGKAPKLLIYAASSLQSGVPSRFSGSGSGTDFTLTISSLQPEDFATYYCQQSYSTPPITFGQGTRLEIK
B2: in the assay with Activin A [1], the “Activin A-20 nM (RU)” value was 18 RU, binding was put at a Kd of 127 pM, the koff was found to be 0.00238 s⁻¹ and the kon is 1.87e+07 M⁻¹ s⁻¹. In the assay with Activin A [1], this molecule showed a t1/2 of 5 min. In the assay with Activin A [2], the “Activin A-20 nM (RU)” value is 25 RU, binding was put at a Kd of 49.2 pM, the koff amounted to 0.000588 s⁻¹ and the kon is 1.2e+07 M⁻¹ s⁻¹. For the same molecule, the t1/2 in the assay with Activin A [2] came to 20 min.

B3: H4H10424P (antibody, human IgG4, V domains shown)
VH: QVQLVESGGGVVQPGRSLRLSCAASGFTFSSYGMHWVRQAPGKGLEWVAVIWYDGSNKYNADSVKGRFTISRDNSKNTVYLQMNSLRAEDTAVYYCARARNYDILTGYYNLGMDVWGQGTTVTVSS
VL: DIQMTQSPSSLSASVGDRVTITCRASQGIRNDLGWYQQKPGKAPKRLIYAASSLQSGVPSRFSGSGSGTEFTLTISSLQPEDFATYYCLQHNSYPYTFGQGTKLEIK
As to B3, in the assay with Activin A [1], the “Activin A-20 nM (RU)” value was determined as 58 RU, binding was characterised by a dissociation constant (Kd) of 794 pM, the dissociation rate constant (koff) was 0.00364 s⁻¹ and the kon was 4.59e+06 M⁻¹ s⁻¹. The same molecule had a t1/2 with Activin A [1] of 3 min. In addition, in the assay with Activin A [2], the “Activin A-20 nM (RU)” value was 82 RU, the Kd is 229 pM, the off-rate (koff) worked out at 0.000719 s⁻¹ and the on-rate constant (kon) stood at 3.14e+06 M⁻¹ s⁻¹. The same molecule yielded a t1/2 in the assay with Activin A [2] of 16 min.

B4: H4H10433P2 (antibody, human IgG4, V domains shown)
VH: EVQLVESGGGLVQAGRSLRLSCEASGFTFDDYGMHWVRQGPGKGLEWVSGISWNSGNIDYADSVKGRFTISRDNAKTSLYLQMNSLKTDDTALYFCAKDAVGFNWNYFLFDYWGQGTLVTVSS
VL: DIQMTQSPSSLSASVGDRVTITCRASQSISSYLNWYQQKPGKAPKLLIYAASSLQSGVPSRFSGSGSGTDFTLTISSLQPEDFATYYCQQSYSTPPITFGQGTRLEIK
For B4, in the assay with Activin A [1], the “Activin A-20 nM (RU)” value amounted to 12 RU; the affinity, expressed as Kd, was 53.7 pM; the koff was found to be 0.00107 s⁻¹; the kon turned out to be 2e+07 M⁻¹ s⁻¹. This molecule also returned a t1/2 in the assay with Activin A [1] of 11 min. In the assay with Activin A [2], the “Activin A-20 nM (RU)” value amounted to 16 RU, the Kd came to 40.6 pM, the koff was 0.000577 s⁻¹ and the kon was 1.42e+07 M⁻¹ s⁻¹. The same molecule showed a t1/2 with Activin A [2] of 20 min.

B5: H4H10426P (antibody, human IgG4, V domains shown)
VH: EVQLVESGGNLVQSGRSLRLSCTASGFAFDDFAMHWVRQVPGKGLEWVSGISWNSDTIGYADSVKGRFTISRDNAQNSLFLQMDSLRAEDTALYYCVKDMVRGLIGYYYYGMDVWGQGTTVTVSS
VL: EIVLTQSPAILSLSPGERAILSCRASQSIYTYLSWYQQTPGRAPRLLIYETSSRATGIPARFIGSGSGTDFTLTISSLEPEDFAFYYCQHRSDWPPTFGQGTKLEIK
For the molecule B5, in the assay with Activin A [1], the “Activin A-20 nM (RU)” value was 21 RU, binding was characterised by a dissociation constant (Kd) of 123 pM, the koff was 0.00198 s⁻¹ and the kon came out at 1.61e+07 M⁻¹ s⁻¹. This molecule had a t1/2 in the assay with Activin A [1] of 6 min. Besides, in the assay with Activin A [2], the “Activin A-20 nM (RU)” value is 23 RU, the Kd amounted to 59.5 pM, the koff is 0.0007 s⁻¹ and the association rate constant (kon) came to 1.18e+07 M⁻¹ s⁻¹. The molecule further returned a t1/2 in the assay with Activin A [2] of 16 min.

The record behind these values is patent publication US20150037339A1 (Regeneron, published 2015).
